Results reported in patent publication US20150284431A1.
Square brackets hold non-standard residues; d marks the D form. * marks the point of attachment. Butanoyl(4-Ph) = O=C(CCCc1ccccc1)*; Butanoyl(4-ethynyl) = C#CCCCC(=O)*

What was measured:
[1] = target: human melanocortin 1 receptor (human) (UniProt Q01726); assay: competition with Eu-NDP-alpha-MSH, time-resolved fluorescence; 10% ligand loading
[2] = target: human melanocortin 1 receptor (human) (UniProt Q01726); assay: competition with Eu-NDP-alpha-MSH, Eu time-resolved fluorescence, HCT116/hMC1R cells; concentration normalized to the targeting group

human melanocortin 1 receptor (human), sequence (Q01726 whole entry): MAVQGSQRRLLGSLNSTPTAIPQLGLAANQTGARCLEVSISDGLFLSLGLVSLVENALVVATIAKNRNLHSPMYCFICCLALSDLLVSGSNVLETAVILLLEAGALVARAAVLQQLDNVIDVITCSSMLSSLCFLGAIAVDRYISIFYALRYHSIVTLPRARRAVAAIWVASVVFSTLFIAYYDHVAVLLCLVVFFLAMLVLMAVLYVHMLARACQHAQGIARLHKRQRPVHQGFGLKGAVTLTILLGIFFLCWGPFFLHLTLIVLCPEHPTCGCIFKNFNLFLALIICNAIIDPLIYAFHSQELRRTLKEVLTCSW

| Ki [1] [nM] | Ki [2] [nM] | Binder |
| --- | --- | --- |
| 2.9 | – | {Butanoyl(4-Ph)}-H[dF]RWGK(Butanoyl(4-ethynyl))-NH2 (peptide, part only; not given: crosslinked triblock polymer carrier, part only, also: micelle crosslinked with Fe(III), triblock polymer block lengths not given here) [4-targeted crosslinked (XL) micelle] |
| – | 11.5 | HFRWGK (peptide, part only; not given: triblock polymer carrier, part only, not fully specified; N-terminal 4-phenylbutyryl; DPhe at 2; Lys(hex-5-ynoyl) at 6 joined by a 1,2,3-triazole to the PEG block of the triblock polymer; C-terminal amide) [4-targeted micelles] |
| 12 | – | {Butanoyl(4-Ph)}-H[dF]RWGK(Butanoyl(4-ethynyl))-NH2 (peptide, part only; not given: triblock polymer carrier, part only, also: micelle not crosslinked, triblock polymer block lengths not given here) [4-targeted uncrosslinked (UXL) micelle] |
| – | 25.6 | HFRWGK (peptide, part only; not given: triblock polymer, part only, N-terminal 4-phenylbutyryl; DPhe at 2; Lys(hex-5-ynoyl) at 6 joined by a 1,2,3-triazole (click reaction) to the azide end of the PEG block of the triblock polymer; C-terminal amide) [4-targeted triblock polymer] |
